According to publication PMC10942606:

T1: SpPCNA (recombinant S. pombe PCNA) (S. pombe), Q03392
T1 chain: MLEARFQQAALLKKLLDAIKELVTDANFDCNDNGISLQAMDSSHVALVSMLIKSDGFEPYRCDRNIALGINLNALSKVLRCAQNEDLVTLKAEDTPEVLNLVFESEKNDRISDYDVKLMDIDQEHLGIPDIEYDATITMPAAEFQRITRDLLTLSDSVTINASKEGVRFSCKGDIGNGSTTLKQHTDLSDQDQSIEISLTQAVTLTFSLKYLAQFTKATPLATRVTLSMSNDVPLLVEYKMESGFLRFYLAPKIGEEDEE


Molecular target: T1, SpPCNA (recombinant S. pombe PCNA) (S. …)
Experiment: ITC

Kd | dH | stoichiometry N | Binder
3.5 µM | -4.8 kCal.M^–1 | 0.9 | KNTAQSKPQQKSIMSFFGKK (modifications not checked) [Cdc27_PIP peptide]
7.1 µM | -2.9 kCal.M^–1 | 0.97 | QLKLNNFF (modifications not checked) [Pcf1_PIP peptide]
